Data on two substances can be found in patent US20220389073A1, “Novel Mini-Insulin With Extended C-Terminal A Chain” (University of Utah Research Foundation, priority 2019, published 2022).

For data set [1], the target named is hIR (Homo sapiens, UniProt P06213). Briefly: hIR activation / insulin signaling activation. Format: cell-based.
For data set [2] the following is noted: known property of shortened human insulin; cited from earlier work.

As for “Des-octapeptide (B23-30) human insulin [DOI]”, the “hIR activation activity compared with enzymatically synthetic DOI” value in data set [1] is “same”. Also, in data set [1] (relative to human insulin), the “potency, fold weaker than human insulin” value is 1,000 fold. The oligomeric state entry in data set [2] is “monomeric”.
“quadruple DOI mutant: DOI with A8 His, A9 Arg, B10 Glu, B20 Tyr; SEQ ID NO: 12 and SEQ ID NO: 3”: in data set [1] (FIG. 7), the “potency for hIR activation compared with human insulin” value is “comparable to that of human insulin”.
